The values that follow come from paper PMC3142614.

For this test, the target named is recombinant AvrM-A Δ28 with an N-terminal hexahistidine tag (Melampsora lini (flax rust)). The test is described as follows: SEC-MALS. In general terms: Size exclusion chromatography separates by hydrodynamic size, large species first.

What is called stoichiometry N is a count of units in the complex or per binding partner. Take “recombinant AvrM-A Δ28 with an N-terminal hexahistidine tag (natural protein)”: the stoichiometry N is 2.
